Data from patent US9187567 (PARKINSON S INSTITUTE, dated 2015).

What was measured:
Experiment in all cases: 14-3-3 overlay (far-western) assay
[1] = target: T1, GFP tagged, full length LRRK2 Ser910Ala (human, UniProt Q5S007 1-2527)
T1 construct: mature; also called S910A; not shown: GFP tag, amino-terminal

[2] = target: T2, GFP tagged, full length LRRK2 Ser935Ala (human, UniProt Q5S007 1-2527)
T2 construct: mature; also called S935A; not shown: GFP tag, amino-terminal

[3] = target: T3, GFP tagged, full length LRRK2 Ser955Ala (human, UniProt Q5S007 1-2527)
T3 construct: mature; also called S955A; GFP-LRRK2-S955A; not shown: GFP tag, amino-terminal

[4] = target: T4, GFP tagged, full length LRRK2 Ser973Ala (human, UniProt Q5S007 1-2527)
T4 construct: mature; also called S973A; GFP-LRRK2-S973A; not shown: GFP tag, amino-terminal

[5] = target: T5, GFP tagged, full length LRRK2 I2020T (human, UniProt Q5S007 1-2527)
T5 construct: mature; also called 12020T (so in the source); not shown: GFP tag, amino-terminal

[6] = target: T6, GFP tagged, full length LRRK2 from cells treated with 1 µM LRRK2-IN1 for 90 minutes (human, UniProt Q5S007 1-2527, Serines 910, 935, 955 and 973 dephosphorylated by LRRK2-IN1 treatment of the cells)
T6 construct: mature; Same polypeptide as m10; It differs only in phosphorylation state; also called LRRK2-IN1 treated LRRK2; not shown: GFP tag, amino-terminal
T6 sequence (Q5S007 whole entry): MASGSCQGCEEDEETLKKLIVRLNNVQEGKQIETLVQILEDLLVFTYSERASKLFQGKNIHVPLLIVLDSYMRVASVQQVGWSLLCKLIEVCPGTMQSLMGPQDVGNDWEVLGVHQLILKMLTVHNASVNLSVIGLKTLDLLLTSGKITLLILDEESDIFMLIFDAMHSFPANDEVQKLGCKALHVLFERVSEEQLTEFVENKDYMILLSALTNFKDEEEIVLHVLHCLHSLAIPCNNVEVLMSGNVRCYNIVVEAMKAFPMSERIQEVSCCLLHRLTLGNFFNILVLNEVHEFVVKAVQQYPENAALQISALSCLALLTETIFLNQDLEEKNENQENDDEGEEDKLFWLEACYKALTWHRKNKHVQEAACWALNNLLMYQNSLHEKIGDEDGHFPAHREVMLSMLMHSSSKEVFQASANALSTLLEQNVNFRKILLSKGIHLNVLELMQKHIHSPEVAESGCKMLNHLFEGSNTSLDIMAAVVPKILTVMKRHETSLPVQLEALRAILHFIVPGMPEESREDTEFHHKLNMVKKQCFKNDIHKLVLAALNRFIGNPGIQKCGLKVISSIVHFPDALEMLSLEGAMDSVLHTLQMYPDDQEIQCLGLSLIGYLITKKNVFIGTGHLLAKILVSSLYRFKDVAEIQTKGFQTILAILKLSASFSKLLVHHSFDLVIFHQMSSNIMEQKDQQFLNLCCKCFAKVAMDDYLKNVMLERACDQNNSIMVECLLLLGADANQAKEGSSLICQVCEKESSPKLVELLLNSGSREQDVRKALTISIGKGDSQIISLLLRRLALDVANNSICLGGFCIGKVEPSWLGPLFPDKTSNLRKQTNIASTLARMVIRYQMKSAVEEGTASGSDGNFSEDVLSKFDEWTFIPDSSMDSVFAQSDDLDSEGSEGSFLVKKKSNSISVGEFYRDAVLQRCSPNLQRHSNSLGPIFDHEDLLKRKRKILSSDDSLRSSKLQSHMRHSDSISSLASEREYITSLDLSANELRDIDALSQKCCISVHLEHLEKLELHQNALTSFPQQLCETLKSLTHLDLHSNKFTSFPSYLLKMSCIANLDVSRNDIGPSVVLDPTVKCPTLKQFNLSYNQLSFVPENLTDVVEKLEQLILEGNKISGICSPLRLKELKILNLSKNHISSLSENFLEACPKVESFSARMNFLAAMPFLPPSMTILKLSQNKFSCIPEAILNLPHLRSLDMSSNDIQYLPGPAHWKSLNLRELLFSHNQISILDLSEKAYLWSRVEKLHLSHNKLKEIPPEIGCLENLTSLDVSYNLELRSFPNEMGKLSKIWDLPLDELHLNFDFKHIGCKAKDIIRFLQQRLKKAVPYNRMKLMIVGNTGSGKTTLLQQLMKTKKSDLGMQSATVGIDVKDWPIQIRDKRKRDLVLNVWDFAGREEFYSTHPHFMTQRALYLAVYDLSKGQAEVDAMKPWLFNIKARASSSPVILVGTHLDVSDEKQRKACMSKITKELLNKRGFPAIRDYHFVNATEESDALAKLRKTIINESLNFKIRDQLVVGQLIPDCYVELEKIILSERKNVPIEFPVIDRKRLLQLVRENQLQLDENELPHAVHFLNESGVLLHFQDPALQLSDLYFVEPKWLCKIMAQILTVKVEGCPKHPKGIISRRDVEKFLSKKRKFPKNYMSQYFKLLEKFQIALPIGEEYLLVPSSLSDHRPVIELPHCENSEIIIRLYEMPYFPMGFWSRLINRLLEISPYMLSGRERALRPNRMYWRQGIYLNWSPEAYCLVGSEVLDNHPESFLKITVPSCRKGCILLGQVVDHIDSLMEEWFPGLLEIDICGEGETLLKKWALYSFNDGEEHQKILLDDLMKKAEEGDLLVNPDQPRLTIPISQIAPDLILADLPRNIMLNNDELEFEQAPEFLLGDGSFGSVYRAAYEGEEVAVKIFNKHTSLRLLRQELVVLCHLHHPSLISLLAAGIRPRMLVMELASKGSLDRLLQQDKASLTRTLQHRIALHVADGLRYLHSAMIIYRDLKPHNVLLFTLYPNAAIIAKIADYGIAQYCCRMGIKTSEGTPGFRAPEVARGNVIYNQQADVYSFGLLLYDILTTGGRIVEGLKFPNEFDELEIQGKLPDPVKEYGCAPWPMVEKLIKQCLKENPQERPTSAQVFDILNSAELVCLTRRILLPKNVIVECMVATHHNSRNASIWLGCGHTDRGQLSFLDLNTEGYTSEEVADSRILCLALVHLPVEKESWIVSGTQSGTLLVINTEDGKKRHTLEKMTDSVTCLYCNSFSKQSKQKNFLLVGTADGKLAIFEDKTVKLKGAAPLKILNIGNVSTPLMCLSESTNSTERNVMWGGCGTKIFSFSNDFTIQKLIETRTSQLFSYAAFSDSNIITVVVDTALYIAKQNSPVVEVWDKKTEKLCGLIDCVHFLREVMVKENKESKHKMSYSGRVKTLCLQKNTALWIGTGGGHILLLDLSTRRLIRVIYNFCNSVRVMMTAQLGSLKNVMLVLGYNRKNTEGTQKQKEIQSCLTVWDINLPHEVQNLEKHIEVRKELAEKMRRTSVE

T2 sequence (Q5S007 whole entry S935A): as the sequence (Q5S007 whole entry) above, with S935A counted along it
T5 sequence (Q5S007 whole entry I2020T): as the sequence (Q5S007 whole entry) above, with I2020T counted along it
T1 sequence (Q5S007 whole entry S910A): as the sequence (Q5S007 whole entry) above, with S910A counted along it
T3 sequence (Q5S007 whole entry S955A): as the sequence (Q5S007 whole entry) above, with S955A counted along it
T4 sequence (Q5S007 whole entry S973A): as the sequence (Q5S007 whole entry) above, with S973A counted along it

binding result [1]: no binding
binding result [2]: no binding
binding result [3]: binds
binding result [4]: binds
binding result [5]: no binding
binding result [6]: binds
B1: LiCOR Dyelight labelled 14-3-3 protein (recombinant, His tagged BMH1) (other, UniProt P29311 1-267, looked up)
chain: MSTSREDSVYLAKLAEQAERYEEMVENMKTVASSGQELSVEERNLLSVAYKNVIGARRASWRIVSSIEQKEESKEKSEHQVELICSYRSKIETELTKISDDILSVLDSHLIPSATTGESKVFYYKMKGDYHRYLAEFSSGDAREKATNASLEAYKTASEIATTELPPTHPIRLGLALNFSVFYYEIQNSPDKACHLAKQAFDDAIAELDTLSEESYKDSTLIMQLLRDNLTLWTSDMSESGQAEDQQQQQQHQQQQPPAAAEGEAPK
modifications: fluorescent dye label (LiCOR Dyelight)
notes: also called fluorescent dye labeled recombinant 14-3-3; not shown: His tag
